Consider one molecule from publication PMC8038949, “Structural basis for the DNA-binding activity of human ARID4B Tudor domain”.

For this data set, the target named is T1, ARID4B TD121 E50L (Homo sapiens, UniProt Q4LE39 1-121, E50L).
T1 sequence: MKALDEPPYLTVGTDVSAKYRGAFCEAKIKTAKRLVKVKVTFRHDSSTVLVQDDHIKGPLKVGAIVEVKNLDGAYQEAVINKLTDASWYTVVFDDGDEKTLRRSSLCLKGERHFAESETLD
As to the kind of experiment: EMSA; stronger than wild-type ARID4B TD121; 50 mM Tris-HCl pH 7.6, 50 mM NaCl (buffer A); ITC 25 C; EMSA 4 C, 12 uM DNA, 8% native gel in TBE; NMR titration by 1H-15N HSQC (temperature not stated for titration; buffer A also defined elsewhere as 20 mM phosphate, 100 mM NaCl, pH 7.0). To be noted: protein: recombinant; 5' overhang 1 nt on each strand (17 bp paired). On the technique in general: In EMSA bound probe runs differently from free probe, usually more slowly.

B1: dsDNA1 (dsDNA)
DNA 1: CTCAGGTCAAAGGTCACG
DNA 2: TCGTGACCTTTGACCTGA
With B1, the binding result is listed as “binds”.
